Results as given in publication PMC2576301, “The crystal structure of the catalytic domain of a eukaryotic guanylate cyclase” (BMC Structural Biology, 2008).

B1: guanylate cyclase catalytic domain of CYG12 (Chlamydomonas reinhardtii) (protein)
chain: APAQEHPEATVLFSDIVGFTEIASRSSPLEVCSLLDELYQRFDAAIEEYPQLYKVETIGDAYMVVCNVTVPCDDHADVLLEFALRMHEEASRVASSLGEPVRIRVGMHSGPVVAGVVGRKMPRFCLFGDTVNTASRMESHGEAGQIHISEACYCCLRSKERFEIRERGNITVKGKGTMRTYLLSPLER
notes: catalytic domain, residues 468-655 of 991; His-SMT3 (SUMO) fusion cleaved off; expressed in E. coli Tuner(DE3); homodimer

Experiments:
[1] = molecular target: catalytic domain of the soluble guanylate cyclase CYG12 from Chlamydomonas reinhardtii (Chlamydomonas reinhardtii); experiment: crystal structure; sitting-drop vapor diffusion, 20°C; 0.1 M sodium cacodylate pH 5.0-6.4, 42-62% saturated (NH4)2HPO4; molecular replacement; 2.55 Å; one dimer per asymmetric unit
[2] = substrate: Nc1nc2c(ncn2[C@@H]2O[C@H](COP(=O)(O)OP(=O)(O)OP(=O)(O)O)[C@@H](O)[C@H]2O)c(=O)[nH]1; experiment: cGMP formation, enzyme immunoassay; Hill fit; format: biochemical, Chlamydomonas reinhardtii; conditions: 4 mM MnCl2, pH 7.5, 24 °C, 5 mM dithiothreitol, 2 min, positive cooperativity, Hill coefficient 1.49 ± 0.16

Molecule	stoichiometry N [1]	K0.5 [2]
catalytic domain of the soluble guanylate cyclase CYG12 from Chlamydomonas reinhardtii (domain or fragment)	2	
B1		269 ± 26 µM
